Assay [1] addresses T1, first-generation H1 LAH construct H1frThrST (Influenza A virus (H1)). Nature of the assay: ELISA, supernate. A general note: ELISA stands for enzyme-linked immunosorbent assay.
The target of assay [2] is T2, first-generation H3 LAH construct H3frThrST (Influenza A virus (H3)). Put plainly: ELISA, supernate.
For assay [3], the target named is T1, first-generation H1 LAH construct …. Put plainly: ELISA, supernate. This is another data set of the same source.
The target in assay [4] is T2, first-generation H3 LAH construct …. Nature of the assay: ELISA, supernate. The source holds these as a separate data set.
Assay [5] addresses T1, first-generation H1 LAH construct …. Put plainly: ELISA, supernate. The source holds these as a separate data set.
Assay [6] addresses T2, first-generation H3 LAH construct …. Nature of the assay: ELISA, supernate. The source holds these as a separate data set.
In assay [7] the target is T1, first-generation H1 LAH construct …. Nature of the assay: ELISA, supernate. This is another data set of the same source.
In assay [8] the target is T2, first-generation H3 LAH construct …. Nature of the assay: ELISA, supernate. This is another data set of the same source.
Assay [9] addresses T1, first-generation H1 LAH construct …. Nature of the assay: ELISA, supernate. The source holds these as a separate data set.
Assay [10] has as its target T2, first-generation H3 LAH construct …. Put plainly: ELISA, supernate. The source holds these as a separate data set.
For assay [11], the target named is T1, first-generation H1 LAH construct …. Put plainly: ELISA, recombinant mAb.
Assay [12] addresses T2, first-generation H3 LAH construct …. Nature of the assay: ELISA, recombinant mAb.
In assay [13] the target is T1, first-generation H1 LAH construct …. Put plainly: ELISA, supernate. This is another data set of the same source.
Assay [14] deals with T2, first-generation H3 LAH construct …. Nature of the assay: ELISA, supernate. This is another data set of the same source.

B1: mAb 11J19 (antibody, V domains shown)
VH: EVQLQESGPGLVKPSETLSLSCTVSGGSITRSSYYWGWIRQPPGKGLEWIGNIYYSGTTYYNPSLKSRVTISVDTSKNQFSLKLSSVTAADTAVYYCARLYGSGLDYWGQGTLVTVS
VL: DIQLTQSPSFLSASVGDRVTITCRASQGSSRYVAWYQQKPGKAPKLLILAASTLHTGVPSRFSGSGSGTEFTLTISSLQPEDFATYSCQQLNGFLLTFGGGTKVEIKR
Regarding B1, the OD in assay [1] stood at 0.085 OD; in [2] it was 0.075 OD.

B2: mAb 3E22 (antibody, V domains shown)
VH: EVQLVESGAEVKKPGASVKVSCKASGYTFSRYYIHWVRQAPGQELEWMGWINPDSGDTNYAQKFRGRVTMARDTSISTVYMELNSLRYDDTAVYFCARIIWSSSGMDVWGQGTTVTVS
VL: QSALTQPASVSGSPGQSITISCTGTSSDVGSYNLVSWYQQHPGKAPKLMIYEVSKRPSGVSNRFSGSKSGNTASLTISGLQAEDEADYYCHLYVGSSNWVFGGGTKLAVLG
Consider B2, for which the binding result in assay [3] and in assay [4] was “no binding” throughout. Besides, the OD was determined as 0.087 OD in [5] and 0.086 OD in assay [6].

B3: mAb 10E15 (antibody, V domains shown)
VH: EVQLLESGGGVVQPGRSLRLSCAASGFTFRTYGMHWVRQAPGKGLEWVAVISHDGNLKYYGGSVKGRFTISRDNSKNALYLQMNSLRVDDTALYYCARGIGITDAFDIRGQGTMVVVS
VL: QSVLTQPPSVSAAPGQKVTISCSGSSSNIGKNYVSWYQQLPGTAPKLLIYDNDKRPSGIPDRFSGSKSGTSATLGITGLQTGDEADYHCGAWDSSLNGGVFGGGTKVTVLG
With B3, in assay [3], the binding result is on record as “no binding”. In addition, the results for the OD in [7] and in assay [8] were 0.068 OD and 0.07 OD, respectively.

B4: mAb 4A10 (antibody, V domains shown)
VH: EVQLVESGGGLVQPGGSLRLSCAASGFSFSSYWMTWVRQAPGKGLEWVANIKQYGSEKYYVDSVKGRFTISRDNAKNSLYLQMNSLRDDDTAVYYCARMGSYLDTYYYHYGMDVWGQGTTVTVS
VL: QSVLTQPPSLSGAPGQRVTISCTGSSSNIGADYDVYWYQHLPGTAPKLLMYGDGYRPSGVPDRFSGSKSGTSASLAITGLQAEDEADYYCQSYDSSLSRRVVFGGGTKLTVLG
Turning to B4, the OD worked out at 0.069 OD in assay [9] and 0.073 OD in assay [10].

B5: mAb 5J8 (antibody, V domains shown)
VH: EVQLVESGPGLVKPSDILSLTCAVSGYSISSNYYWGWIRQPPGKGLEWIGSIYHSGSTYYKPSLESRLGISVDTSKNQFSLKLSFVSAADTAVYYCARHVRSGYPDTAYYFDKWGQGTLVTVS
VL: SYVLTQPPSVSVAPGETARISCGGNNIGTKVLHWYQQTPGQAPVLVVYDDSDRPSGIPERFSGSNSGNTATLTISRVEVGDEADYYCQVWDISTDQAVFGGGTKLTVLG
As to B5, the OD in assay [9] stood at 0.076 OD; in assay [10], 0.083 OD.

B6: mAb 25J3 (antibody, V domains shown)
VH: QVQLQESGPGLVRPSETLSLTCNVSGDSINDYYWSWIRQPPGKGLEWIGYIYYSGSTNYNPSLNSRVTISVEMSKNQFSLILNSVTAADTAVYYCARVDYDSGGSFDPWGQGTLVTVS
VL: QSVLTQPPSVSGAPGQRVTISCTGSSSNIGAGYDVHWYQQLPGTAPKLLIYGNSNRPSGVPDRFSGSKSGTSASLAITGLQAEDEADFYCQSYDSRLSGYVFGTGTKVTVLG
In the case of B6, the figures for the OD in assay [1] and in [2] were 0.068 OD and 0.067 OD, respectively.

B7: mAb 3N6 (recombinant) (antibody, V domains shown)
VH: QVQLQESGPGLVKPSETLSLTCSVSGGSINYYYWSWIRQPPGKGLECIGYISDTGRTYYNPSLRSRVTISVDTSKNQFSLNLTSMTAADTAVYYCARDPTGSRQKNAFDMWGQGTMVTVS
VL: AIQMTQSPSSLSASVGDRVTITCRASQNIRSYLNWYQQKPGKAPNLLIYGTTSLESGVPSRFSGSGSGTDFTLTISSLQPEDFATYYCQQSYHTPQTFGQGTKVEIKR
Turning to B7, the values for the OD in assay [11] and in assay [12] were 0.91 OD and 0.072 OD, respectively.

B8: mAb 2O10 (antibody, V domains shown)
VH: EVQLVESGGGLVQPGGSLRLSCAASGFTFNSYWMTWVRQAPGKGLEWVANINQDGSEKFFVDSVKGRFTISRDNAKTSLYLQMNSLRVEDTAVYYCAREGAPYDTYYYYYAMDVWGQGTTVTVS
VL: QSVLTQPPSVSGAPGQRVTISCTGTSSNIGAGYGVHWYQQLPGAAPKLLVYGNSNRPSGVPDRFSGSKSGTSASLAITGLQAEDEADYYCQSYDISLSGSNVFGTGTKVTVLG
Consider B8, for which the OD turned out to be 0.072 OD in [9] and 0.074 OD in assay [10].

B9: mAb 2K11 (antibody, V domains shown)
VH: EVQLVESGGGLVQPGGSLRLSCVASTFSLINYWMTWVRQAPGKGLEWVANIKQDGFEKYYVDSVKGRFTISRDNAKNSLYLQMNSLRVEDTAVYYCARQGSYADTYFYHYGMDVWGQGTTVTVS
VL: QSALTQPPSVSGAPGQRVTISCTGSSSNIGAGYDAYWYQQLPGTAPKLLIYGNSNRLSGVPDRFSASKSGTSASLAITGLQAEDEADYYCQSYDSSLSIFGGGTKLTVLR
As for B9, the OD in assay [9] came out at 0.079 OD; in assay [10], 0.072 OD.

B10: mAb 6J24 (antibody, V domains shown)
VH: EVQLVESGGGLVQPGRSLRLSCVGSGFNFDGYAMQWVRQVPGKGLEWVSGISWHSDSTGYADSVRGRFTISRDNAKNSLYLQMDSLRPEDTAFYYCGKSIGHVGGSYRHPIDYWGQGTLVTVS
VL: DIQLTQSPSSLSASVGDRVTITCRASQGITDYLAWYQQKPGTIPKLLIYAASTLQSGVPSRFSGGGYGTDFTLTISSLQPEDVATYYCQKYNSAPLTFGGGTKVEIKR
Turning to B10, the values for the OD in assay [13] and in assay [14] were 0.418 OD and 0.94 OD, respectively.

B11: mAb 8F8 (antibody, V domains shown)
VH: EVQLLESGGGVVQPGRSLRLSCAASGFMFSSYVMHWVRQPPGKGLEWVAVIWYDGSKTYFADSMRGRLTVSRDNSKNALYLQMNRLRAEDTAVYYCARQQDSGYSGPEVSYYSHYGMDVWGQGTTVIVS
VL: QSVLTQSPSASGTPGRAITISCSGSSSNIGSNPVNWYQQLPGAAPKLLIYADEHRPSGVPDRFSGPKSGTSASLAISGLQSEDEADYYCAAWDDSLSGPAVVFGGGTKLTVLG
Take B11: the OD in assay [1] and in [2] was 0.071 OD each time.

B12: mAb 7A13 (antibody, V domains shown)
VH: QVQLQESAPGLVKPSGTLSLTCAVSGASLSSSDWWTWVRQPPGKGLEWIGEIHHGGSTNSNPSLQSRVTISIDKSKKQFSLKLTSVTVADTAVYYCARAPGADAGPYSENIHHWGQGTLVTVS
VL: QLVLTQSPSASASLGASVKLTCTLSSRHSDYAIGWHQQQPGKGPRYLMKLNPDGSHTKGDGIPDRFSGSSSGAERYLTISNLLSEDEADYYCQTWGTGIQVFGGGTRLTVIS
Take B12: the OD in [1] and in assay [2] was 0.068 OD throughout.

B13: mAb 18G6 (antibody, V domains shown)
VH: QVQLKESGPGLVKPSETLSLTCTVSGGSISSSNYNWGWIRQPPGKGLEWIGSVYYSGSTYFNPSLKSRVTISVDTSKNQFSLKLTSVTAADTAVYYCARLIAFYYDTNGYTWGQGTLVTVS
VL: NSIMTQSPFTLSASVGDKVTITCRASQSISPWLAWYQQKPGKAPKLLIYKASSLETGVPSRFSGSESGTEFTLTISGLQPDDFATYYCQQYSSFARTFGQGTKVEIKR
Turning to B13, the OD in assay [1] and in assay [2] was 0.071 OD in each case.

Values taken from patent US20130289246A1 (VANDERBILT UNIVERSITY, published 2013).
